The target of the experiment is ribosomal protein uL29 (B. subtilis (endogenous in the B. …, UniProt P12873 1-66)). In words: cryo-EM structure; (Bs)SRP pre-incubated with pppGpp, tenfold molar excess over MifM-stalled RNCs, 10 min at room temperature. The conditions noted are these: both partners purified.

B1: recombinant (Bs)SRP (Ffh and 6S RNA) (natural protein)
chain: MAFEGLADRLQQTISKIRGKGKVSEQDVKEMMREVRLALLEADVNFKVVKDFVKKVSERAVGQDVMKSLTPGQQVIKVVQEELTELMGGEESKIAVAKRPPTVIMMVGLQGAGKTTTSGKLANLLRKKHNRKPMLVAADIYRPAAIKQLETLGKQLDMPVFSLGDQVSPVEIAKQAIEKAKEEHYDYVILDTAGRLHIDHELMDELTNVKEIANPEEIFLVVDSMTGQDAVNVAKSFNEQLGLTGVVLTKLDGDTRGGAALSIRAVTNTPIKFAGLGEKLDALEPFHPERMASRILGMGDVLTLIEKAQASVDEDKAKELEQKMRTMSFTLDDFLEQLGQVRNMGPLDELLQMMPGAGKMKGLKNIQVDEKQLNHVEAIIKSMTVLEKEQPDIINASRRKRIAKGSGTSVQEVNRLLKQFDEMKKMMKQMTNMSKGKKKGFKLPFM
notes: Ffh, B. subtilis, full length; Ribonucleoprotein: the protein stood with the 6S SRP RNA and with pppGpp or GMPPNP; also called full-length (Bs)Ffh; not shown: 6xHis, N-terminal, cleaved
Consider B1, for which the binding result is given as “binds”.
